Measured values as given in article PMC8484483 (Scientific Reports, 2021).

B1: anti-TNFR2 TR109, human chimeric monoclonal antibody (antibody, V domains shown)
VH: QVQLKESGPGLVAPSQSLSITCTVSGFSLTVYGVNWVRQPPGKGLEWLGMIWGDGSTAYNSALKSRLTITKDNSKTQVFLKMNSLQTDDTARYYCARDGRRYALDYWGQGTSVTVSS
VL: DIVLTQSPTSLAVSLGQRATISCRASESVDSYGDSFLHWYQQKPGQPPILLIYRASNLDSGIPARFSGSGSRTDFTLTINPVEADDVATYYCQQSNEDPYTFGGGTKLEIK
B2: anti-CD30 T104, human chimeric monoclonal antibody (antibody, V domains shown)
VH: QIQLVQSGPELKKPGETVKISCKASGYTFTDYSMHWVKQAPGKGLKWMGWINTETGEPTYADDFKGRFAFSLETSASTAYLQINNLKNEDTATYFCTEGYVFDFWGQGTTLTVSS
VL: DILLTQSPAILSVSPGERVSFSCRASRSIGTSIHWYQQRTNGSPRLLINYASESISGIPSRFSGSGSGTDFTLSINSVESEDIADYYCQQSNSWPLTFGAGTKLELK
B3: C-cleaved side product of the IMPTS reaction, monovalent Fab^CD30-Fc (SEC peak P2) (antibody, V domains shown)
VH: B2 VH
VL: B2 VL

What was measured:
Conditions in all cases: both partners purified
[1] = target: T1, recombinant TNFR2 extracellular domain fused with rabbit IgG1 Fc (Homo sapiens, UniProt P20333); test: SPR; Biacore T200; antibodies (1 ug/mL, ca. 400 RU) captured on a CM5 chip with anti-human IgG Fc; TNFR2-rFc and CD30-rFc (10 nM) run one after the other as 1st and 2nd analytes, in both orders; PBS, 0.05% Tween 20, pH 7.4, 25 °C
T1 construct: TNFR2, human, extracellular domain; also called TNFR2-rFc; source: Expi293F, transfected; purified on Protein A (as the chimeric antibodies)
T1 sequence (P20333 23-257): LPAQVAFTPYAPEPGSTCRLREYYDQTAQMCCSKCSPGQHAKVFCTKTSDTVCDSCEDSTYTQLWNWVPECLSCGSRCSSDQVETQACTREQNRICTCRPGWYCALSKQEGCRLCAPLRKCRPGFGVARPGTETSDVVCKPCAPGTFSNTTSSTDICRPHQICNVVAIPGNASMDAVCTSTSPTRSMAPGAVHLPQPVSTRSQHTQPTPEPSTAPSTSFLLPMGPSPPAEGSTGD

[2] = target: T2, recombinant CD30 extracellular domain fused with rabbit IgG1 Fc (Homo sapiens, UniProt P28908); test: as above
T2 construct: CD30, human, extracellular domain; also called CD30-rFc; source: Expi293F, transfected; purified on Protein A (as the chimeric antibodies)
T2 sequence (P28908 19-385): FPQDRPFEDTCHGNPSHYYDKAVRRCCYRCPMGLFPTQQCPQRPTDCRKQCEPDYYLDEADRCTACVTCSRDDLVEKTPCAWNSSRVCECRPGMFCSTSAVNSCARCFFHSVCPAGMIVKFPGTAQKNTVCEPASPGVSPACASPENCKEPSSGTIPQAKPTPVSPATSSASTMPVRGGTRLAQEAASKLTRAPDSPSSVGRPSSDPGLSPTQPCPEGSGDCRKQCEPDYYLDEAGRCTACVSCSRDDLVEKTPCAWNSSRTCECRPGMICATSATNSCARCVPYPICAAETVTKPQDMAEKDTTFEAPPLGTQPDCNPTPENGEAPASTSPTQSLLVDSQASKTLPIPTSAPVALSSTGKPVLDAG

[3] = target: T2, recombinant CD30 extracellular domain …; test: flow cytometry on cells; crosslinking: antigen-expressing cells incubated with mAb or BsAb (10 ug/mL), washed twice, then CD30-rFc or TNFR2-rFc (50 ng/mL) 1 h on ice; rFc detected with R-PE anti-rabbit IgG; the antibody is held on the cells by its other arm

Binder	binding result [1]	binding result [2]	binding result [3]
B1	binds	no binding (tested: 10 nM)	–
B2	no binding (tested: 10 nM)	–	binds
B3	no binding (tested: 10 nM)	binds	–
